This assay addresses T1, 人PSGL-1 (on THP-1 cells) (human) (UniProt Q14242).
T1 sequence (looked up): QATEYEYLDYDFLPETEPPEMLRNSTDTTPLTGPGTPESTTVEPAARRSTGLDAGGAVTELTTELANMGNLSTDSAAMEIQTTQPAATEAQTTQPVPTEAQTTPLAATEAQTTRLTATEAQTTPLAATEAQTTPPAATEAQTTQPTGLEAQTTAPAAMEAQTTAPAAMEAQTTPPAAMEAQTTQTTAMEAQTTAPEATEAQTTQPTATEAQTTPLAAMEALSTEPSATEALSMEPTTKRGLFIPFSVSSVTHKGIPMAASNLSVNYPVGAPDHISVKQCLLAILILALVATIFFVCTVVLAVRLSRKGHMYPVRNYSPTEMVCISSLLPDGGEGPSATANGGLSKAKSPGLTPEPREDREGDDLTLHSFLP
The assay is described as follows: flow cytometry competition on THP-1 cells; competitor recombinant human P-selectin/CD62P Fc chimera; antibody 10 μg/mL. (In general: A flow cytometer gives signals particle by particle.)

B1: 抗体Rh001-22 (antibody, V domains shown)
VH: QVQLLESGPGLVKPSETLSLTCAVSGGSLTSHYWGWIRQPPGKGLEWVGSISGSSGNPEYNPSLKSRATISRDTSENQFSLRVNSVTAADTAVYHCVRWQRLENYFDSWGQGTLVTVSS
VL: DIQMTQPPSVSGDPGQRVTISCTGSTSNIGTYYVSWYRQVPGTVPKLLIYENNKRPSGVSDRFSGSKSGTSASLTITGLQPGDEADYYCLAWDDGLSAGLFGGGTKVEIK
Regarding B1, the fold decrease of CD62P+CD45+/总CD45+细胞 at 10μg/mL is 1.5 倍.

B2: 抗体Rh001-6 (antibody, V domains shown)
VH: QVQLLESGPGLVKPSETLSLSCTVSGGSISGYYYWSWIRQPPGKGLEWIGGIYGTSGSAYYNPSLKSRVTISKDTSKNQFSLKLSSVTAADTAVYYCTRHASGGANTDLWGQGTLVTVSS
VL: DIQMTQSPLSLPVTPGQPASISCRSSQSLVHSDGKTYLNWLQQKPGQPPRRLIYQVSNRDSGVPDRFSGSGAGTDFTLKISRVEAEDVGVYYCGQGTNVPFTFGPGTKVEIK
For the molecule B2, the fold decrease of CD62P+CD45+/总CD45+细胞 at 10μg/mL is 2 倍.

Values taken from patent publication CN113667015A.
